The values below come from the supplement of paper PMC10567573.

Sequences and labels used below:
B1: ZMYND11 (parent)
chain: YCSIKCQQEHWHAEHKRTCRRKR
B2: CAMK2D (parent)
chain: LLKHPNIVRLHDSISEEGFHYLVF
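Further: lentivirally expressed fusions sorted by FACS into six bins by GFP to DsRed ratio, PSI derived from sequencing read proportions per bin multiplied by bin number.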

Variants of B1 are the subject of one data set. As to the kind of experiment: protein stability index of a GFP-peptide fusion (GPS, HEK-293T) (PSI 1-6); higher = more stable. The settings on record: c terminus: native.
As to YCSYKCQQEHWHAEHKRTCRRKR [I4Y], the protein stability index stood at 3.92.

For the variant YCSAKCQQEHWHAEHKRTCRRKR [I4A], the protein stability index turned out to be 2.76.

As to YCSSKCQQEHWHAEHKRTCRRKR [I4S], the protein stability index is 2.51.

As to YCSMKCQQEHWHAEHKRTCRRKR [I4M], the protein stability index amounted to 1.83.

On to YCSRKCQQEHWHAEHKRTCRRKR [I4R], for which the protein stability index came to 2.79.

YCSFKCQQEHWHAEHKRTCRRKR [I4F]: the protein stability index worked out at 2.66.

Regarding VCSIKCQQEHWHAEHKRTCRRKR [Y1V], the protein stability index was 3.71.

Consider QCSIKCQQEHWHAEHKRTCRRKR [Y1Q], for which the protein stability index stood at 3.91.

With KCSIKCQQEHWHAEHKRTCRRKR [Y1K], the protein stability index was found to be 3.12.

In the case of WCSIKCQQEHWHAEHKRTCRRKR [Y1W], the protein stability index was determined as 2.29.

Take HCSIKCQQEHWHAEHKRTCRRKR [Y1H]: the protein stability index was 3.9.

In the case of CCSIKCQQEHWHAEHKRTCRRKR [Y1C], the protein stability index amounted to 3.8.

In the case of LCSIKCQQEHWHAEHKRTCRRKR [Y1L], the protein stability index is 2.86.

TCSIKCQQEHWHAEHKRTCRRKR [Y1T]: the protein stability index was 3.67.

Take PCSIKCQQEHWHAEHKRTCRRKR [Y1P]: the protein stability index turned out to be 3.46.

On to SCSIKCQQEHWHAEHKRTCRRKR [Y1S], for which the protein stability index amounted to 4.09.

GCSIKCQQEHWHAEHKRTCRRKR [Y1G]: the protein stability index stood at 3.74.

As to DCSIKCQQEHWHAEHKRTCRRKR [Y1D], the protein stability index is 2.58.

As for ICSIKCQQEHWHAEHKRTCRRKR [Y1I], the protein stability index was 3.23.

RCSIKCQQEHWHAEHKRTCRRKR [Y1R]: the protein stability index is 3.62.

For the variant MCSIKCQQEHWHAEHKRTCRRKR [Y1M], the protein stability index was 3.94.

With ECSIKCQQEHWHAEHKRTCRRKR [Y1E], the protein stability index is 2.91.

On to FCSIKCQQEHWHAEHKRTCRRKR [Y1F], for which the protein stability index is 1.67.

As to ACSIKCQQEHWHAEHKRTCRRKR [Y1A], the protein stability index came to 3.95.

With NCSIKCQQEHWHAEHKRTCRRKR [Y1N], the protein stability index worked out at 3.79.

Regarding YVSIKCQQEHWHAEHKRTCRRKR [C2V], the protein stability index came out at 1.45.

Regarding YFSIKCQQEHWHAEHKRTCRRKR [C2F], the protein stability index was determined as 2.89.

As to YYSIKCQQEHWHAEHKRTCRRKR [C2Y], the protein stability index is 2.85.

Regarding YLSIKCQQEHWHAEHKRTCRRKR [C2L], the protein stability index was 2.32.

For YRSIKCQQEHWHAEHKRTCRRKR [C2R], the protein stability index came to 3.01.

In the case of YISIKCQQEHWHAEHKRTCRRKR [C2I], the protein stability index came out at 1.92.

On to YDSIKCQQEHWHAEHKRTCRRKR [C2D], for which the protein stability index worked out at 3.76.

With YHSIKCQQEHWHAEHKRTCRRKR [C2H], the protein stability index came to 1.54.

Take YTSIKCQQEHWHAEHKRTCRRKR [C2T]: the protein stability index was found to be 3.44.

On to YNSIKCQQEHWHAEHKRTCRRKR [C2N], for which the protein stability index turned out to be 3.64.

Regarding YPSIKCQQEHWHAEHKRTCRRKR [C2P], the protein stability index stood at 2.2.

Regarding YASIKCQQEHWHAEHKRTCRRKR [C2A], the protein stability index stood at 2.1.

For YESIKCQQEHWHAEHKRTCRRKR [C2E], the protein stability index turned out to be 2.87.

As to YQSIKCQQEHWHAEHKRTCRRKR [C2Q], the protein stability index stood at 1.79.

For the variant YMSIKCQQEHWHAEHKRTCRRKR [C2M], the protein stability index is 3.01.

As for YSSIKCQQEHWHAEHKRTCRRKR [C2S], the protein stability index turned out to be 3.1.

Consider YGSIKCQQEHWHAEHKRTCRRKR [C2G], for which the protein stability index worked out at 2.8.

Take YKSIKCQQEHWHAEHKRTCRRKR [C2K]: the protein stability index came out at 2.68.

Variants of B2 are the subject of another data set. Described as above. The settings on record: c terminus: a fixed tail appended.
As to LLKHPNIVTLHDSISEEGFHYLVF [R9T], the protein stability index is 1.68.

Regarding LLKHPNIVSLHDSISEEGFHYLVF [R9S], the protein stability index came to 2.58.

In the case of LLKHPNIVVLHDSISEEGFHYLVF [R9V], the protein stability index was 1.84.

Take LLKHPNIVRLHDSISEEGFKYLVF [H20K]: the protein stability index was determined as 2.66.

Regarding LLKHPNIVRLHDSISEEGFMYLVF [H20M], the protein stability index was determined as 2.05.

In the case of LLKHPNIVRLHDSISEEGFDYLVF [H20D], the protein stability index came out at 1.96.

Take LLKHPNIVRLHDSISEEGFWYLVF [H20W]: the protein stability index is 1.42.

Consider LLKHPNIVRLHDSISEEGFAYLVF [H20A], for which the protein stability index stood at 1.73.

Take LLKHPNIVRLHDSISEEGFIYLVF [H20I]: the protein stability index worked out at 3.5.

As to LLKHPNIVRLHDSISEEGFEYLVF [H20E], the protein stability index is 3.1.

Regarding LLKHPNIVRLHDSISEEGFTYLVF [H20T], the protein stability index came out at 3.25.

In the case of LLKHPNIVRLHDSISEEGFHYCVF [L22C], the protein stability index stood at 2.18.

For the variant LLKHPNIVRLHDSISEEGFHYVVF [L22V], the protein stability index was found to be 1.03.

LLKHPNIVRLHDSISEEGFHYGVF [L22G]: the protein stability index was 1.57.

Consider MLKHPNIVRLHDSISEEGFHYLVF [L1M], for which the protein stability index amounted to 2.61.

In the case of LLKHPNIVRLHDSISEEGFHWLVF [Y21W], the protein stability index is 2.79.

As for LLKHPNIVRLHDSISEEGFHDLVF [Y21D], the protein stability index amounted to 2.51.

Turning to LLKHPNIWRLHDSISEEGFHYLVF [V8W], the protein stability index was 3.27.

For the variant LLKVPNIVRLHDSISEEGFHYLVF [H4V], the protein stability index was 1.58.

As for LLKHPNIVRLHDSISEEGFHYLTF [V23T], the protein stability index came out at 3.35.

For the variant LLKHPNIVRLHDSISEEGFHYLHF [V23H], the protein stability index stood at 2.57.

Consider LLKHPNIVRLHDSISEEGFHYLQF [V23Q], for which the protein stability index was found to be 1.87.

As to LLFHPNIVRLHDSISEEGFHYLVF [K3F], the protein stability index was 2.85.

Regarding LLRHPNIVRLHDSISEEGFHYLVF [K3R], the protein stability index stood at 2.28.

For the variant LLVHPNIVRLHDSISEEGFHYLVF [K3V], the protein stability index came to 1.78.

On to LLLHPNIVRLHDSISEEGFHYLVF [K3L], for which the protein stability index amounted to 3.21.

Take LLKHPNIVRLHDRISEEGFHYLVF [S13R]: the protein stability index was determined as 1.83.

In the case of LLKHPNIVRLHDQISEEGFHYLVF [S13Q], the protein stability index was determined as 1.7.

With LLKHPNIVRLHDVISEEGFHYLVF [S13V], the protein stability index is 3.9.

As to LLKHPNIVRLHDSISEGGFHYLVF [E17G], the protein stability index worked out at 2.8.

Regarding LLKHPNIVRMHDSISEEGFHYLVF [L10M], the protein stability index stood at 3.69.

For the variant LLKHPNIVRNHDSISEEGFHYLVF [L10N], the protein stability index is 2.25.

In the case of LLKHPNIVRLPDSISEEGFHYLVF [H11P], the protein stability index was 2.42.

For the variant LLKHPNIVRLTDSISEEGFHYLVF [H11T], the protein stability index is 2.52.

As to LLKHPNIVRLHGSISEEGFHYLVF [D12G], the protein stability index amounted to 3.51.

On to LLKHPNIVRLHFSISEEGFHYLVF [D12F], for which the protein stability index is 4.12.

LLKHPNIVRLHDSIIEEGFHYLVF [S15I]: the protein stability index came to 3.54.

LLKHPNIVRLHDSIFEEGFHYLVF [S15F]: the protein stability index turned out to be 2.56.

For LLKHPNIVRLHDSIVEEGFHYLVF [S15V], the protein stability index amounted to 2.2.

As for LLKHPNIVRLHDSIAEEGFHYLVF [S15A], the protein stability index is 2.19.

Take LLKHPNIVRLHDSIWEEGFHYLVF [S15W]: the protein stability index came to 3.22.

Take LLKHPNIVRLHDSISEEGHHYLVF [F19H]: the protein stability index worked out at 1.73.

For the variant LLKHPNIVRLHDSISEEGTHYLVF [F19T], the protein stability index came out at 3.57.

On to LLKHPNIVRLHDSISEEIFHYLVF [G18I], for which the protein stability index worked out at 2.

In the case of LLKHPNIVRLHDSISEEEFHYLVF [G18E], the protein stability index was determined as 1.63.

As for LLKHPNIVRLHDSISEEPFHYLVF [G18P], the protein stability index was found to be 2.03.

In the case of LLKHPNIVRLHDSISEEYFHYLVF [G18Y], the protein stability index was found to be 1.8.

Consider LLKHPNIVRLHDSISEEGFHYLVR [F24R], for which the protein stability index turned out to be 2.06.

On to LLKHPNIVRLHDSISEEGFHYLVE [F24E], for which the protein stability index was 1.73.

In the case of LLKHPNIVRLHDSISEEGFHYLVS [F24S], the protein stability index is 2.13.

For LLKHPSIVRLHDSISEEGFHYLVF [N6S], the protein stability index is 1.39.

Take LLKHPNIVRLHDSISKEGFHYLVF [E16K]: the protein stability index amounted to 1.21.

As to LLKHPNPVRLHDSISEEGFHYLVF [I7P], the protein stability index was determined as 1.76.
